# Assay: soluble on expression in E. coli; label from the status in PepcDB or PDB records
row,Sequence,soluble on expression in E. coli
1,MGSDKIHHHHHHVLLEEFENTSAVIEPTDMAIRGGGEVCETMIFSFNGEIVDRVRQLPESREGGYLESINGRHPWYILERDGVRVAVMLAVIGAPMAVGHLEELKACGFENFIVLGSCGVLDKSLVADKIILPSSALRDEGTSYHYAPASDEISYDPALLLTMEKALDQAGIEHVRAKTWTTDAFYRETSAKVKRRLAAGAMVVDMEASAIMAWANFRQAKVYQFFYTADYVDYHKNEWDARREERTADSMTFFEVAMAIARKLESTSC,not soluble
2,MGSDKIHHHHHHVPGLLPDVDREGLLEYSVVYTDRSLNHMSQLFQGVMRDISNSLKKVYNAKSAVVVPGSGTFGMEAVARQFATNRKCLVIRNGWFSYRWTQIFDMGGIPSESIVLKARPVEEGRQAAYAPPPIEEVVAAIRENKPDLVFAPHVETASGIMLPDAYLRAVADAVHAVDGMFVLDCIASGTVWVDMKASGVDVLISAPQKGWSASPCCGLVMLGELARERIEGTTSTSFACDLRKWLQIMEAYENGGFAYHATMPTDGLATLRDVMKETEAYGFDKVRAEQVELGRRVRSVLADRGFRSVAAEGFEAPGVVVSYTDDDGIRSGKKFADAGLQIAAGVPLQCDEPQDFKTFRIGLFGLDKLHDVEGAVGRFVKGLGSIL,not soluble
3,MGSDKIHHHHHHMSNNHKDSTINLYNHTASDWIRGEPSSLSDFTARPSVLELCEPVSGLRVVDIGCGEGYCSRELHRRGAAQVYGIDLSQGMIEAAKLQEVEHPLSISYEVGCATNLKRFDDSEIDLVVAVFLFNYLTISQTQECMAEVARILRPGGRFVFSVPHPSFPYMREAAYPFYFQVEGAGYFSNRDQQFPGRIWKRDGSWLNVQLIHKTLEDYFNALRIAGFNTMPILQELRVTSEHIAVDKSFFSPLLDQPLHLALQILR,not soluble
4,MAHHHHHHMASAEAEVAADMSAMWRYAEEARAGSSALSDLTYAERQAMLRAVAKALQTNEARILEANREDMVAAKANATADPLLRRLELTPSKLATLIEGISTLADMPDPIGQILSARELDNNLLLLKQTAPIGVVLVVFESRPESLPQIASLALCSGNGLLLKGGREGEHSNAVLHDLIVSAVESSTQGRVPRGVIGLVTNRADVYSLLQLDAHIDLVVPRGSNAMVQNIQRSTRIPVLGHADGICHVYVHKDADVDAALAVAIDAKLNYPAACNAAETLLLHRDLLHSPAHGTTAAQFLVNGMTEAGVSFYAGPQAIAAGLASELAASLHMEYGDAHMTVEVVDDLAAAIAHVNRHGSHHTDTILTVDKAAAAEFQRRVESACVFHNCSTRFADGFRFGLGAEVGISTARIHARGPVGVEGLLTQKWVLKPMGSLPQATEDGAAAAAANAPYATVAEFQKGQRVFTHKDVTRKLQDEAAGLRLQA,not soluble
5,MSVAIDHDQTAKWDWPFQKGDGVVKVLDYEDHFEVGLEAHNFLPNEIDVKNIGEFLEIHMAHTTKDDKFGSITRSITRCYRLPKGTDPATIKSKLDGSGILHISGNKKK,not soluble
6,MAHHHHHHMKSTRTTAKVRPACLPYSTTMRSSRQTSSLLSRVAHSVGAVVAKANLLRQSPSREAHRPSGPAEGLRPSSSSAKPPVLASGDILRDLAFFTQASEVGFFSTHPSLCAQVFGVVPGDVFEVGGGCAVTSSSVVDVDAGSRMAREAIVVVGARSGKLWVWAYGDEAARVLRVPSSTTSAMLSSAVEVRAAIVEHYQLRQLVHPSRRQCSAGGGKAMEQDAQVEFARTVCEAFQSLCARAHEEVQRLYTPDQLAFLQRAPDLYAAATKRVDRVASSLDDASPTAGVNSEPQRQQPNHPPDGSSSFLPRSIYSDIARHAQHAAAVVLLAPRVSLVTGAVGWVGEGDVVLADSLVSQGGCAEASLSASVVI,soluble
7,MEITNPILTGFNPDPSLCRQGEDYYIATSTFEWFPGVRIYHSRDLKNWSLVSTPLDRVSMLDMKGNPDSGGIWAPCLSYADGKFWLLYTDVKIVDSPWKNGRNFLVTAPSIEGPWSEPIPMGNGGFDPSLFHDDDGRKYYIYRPWGPRHHSNPHNTIVLQAFDPQTGTLSPERKTLFTGTPLCYTEGAHLYRHAGWYYLMAAEGGTSYEHAVVVLRSKNIDGPYELHPDVTMMTSWHLPENPLQKSGHGSLLQTHTGEWYMAYLTSRPLRLPGVPLLASGGRGYCPLGRETGIARIEWRDGWPYVEGGKHAQLTVKGPQVAEQPAAVPGNWRDDFDASSLDPELQTLRIPFDDTLGSLTARPGFLRLYGNDSLNSTFTQSTVARRWQHFAFRAETRMEFSPVHFQQSAGLTCYYNSKNWSYCFVDYEEGQGRTIKVIQLDHNVPSWPLHEQPIPVPEHAESVWLRVDVDTLVYRYSYSFDGETWHTVPVTYEAWKLSDDYIGGRGFFTGAFVGLHCEDISGDGCYADFDYFTYEPV,soluble
8,MGHHHHHHSHMVPGSEGPARAGSVVADVVFVIEGTANLGPYFEGLRKHYLLPAIEYFNGGPPAETDFGGDYGGTQYSLVVFNTVDCAPESYVQCHAPTSSAYEFVTWLDGIKFMGGGGESCSLIAEGLSTALQLFDDFKKMREQIGQTHRVCLLICNSPPYLLPAVESTTYSGCTTENLVQQIGERGIHFSIVSPRKLPAL,not soluble
9,MGSDKIHHHHHHMSFEKTSELIEKSRELQEVYQQLVEDVGLDLWRFCRYLTGSPWDGEDLYQETLVKAFGSLYQRWQPTNPKAYLFRIATNTWIDQCRKAKRIVGTVDEMEGPVEEFSNDLELEHAFTRLFTLFPPRQVAVFLLKDVFAFTAEEVASMVRSTSNGVYATSSRVRKKLKETASLEEELSSNGRPSPEQSEVIQQYLEAFNAGDLGKLFDLMSDEVHIDASLGFQEYSKEEMKKGSMQYGLPGFRAEPFVLWGKTVLVVLVDRDAGPLIHDIQFQEIENGKIVYHKSYYFCKEFLMGAAKELQLQVQLDKAAVHWRHSLDEGEL,not soluble
10,MERVSITERPDWRDKATEYGFNFHTMYGEPYWCEDAYYKLTLAQVEKLEDVTAELHQMCLKVVERVIASDELMTKFRIPKHTWGFVRQSWQTQQPSLYSRLDLAWDGIGEPKLLENNADTPTSLYEAAFFQWIWLEDQINAGNLPEGSDQFNSLQEKLIERFAELREQYGFQLLHLTCCRDTVEDRGTIQYLQDCAAEAEIATEFLYIDDIGLGEKGQFTDLQDQVIANLFKLYPWEFMLREMFSTKLEDAGVRWLEPAWKSIISNKALLPLLWEMFPDHPNLLPAYFAEDEHPPMDKYVVKPIFSREGANVSIIENGKTIESVEGPYGEEGMIVQQFYPLPKFGDSYTLIGSWLINDQPAGIGIREDRALITQDLSRFYPHIFVEG,not soluble
11,MGSDKIHHHHHHMSRAHVDHRDLVRFAEERVNLPKEKADEFRAQARRLREKLEGYLAEHPDFALKKMLLSGSLAKGTALRSLNDIDVAVYISGSDAPHDLQALLNYLAEKLRKAFPNFSPEQVQPQTYSVTVNFRGTGLNVDVVPVLYAGLPDWRGNLISQDDGSFLETSIPLHLECARKRKQAQPTHFAQVVRLIKYWARRMKQEHDGFRFKSFMIEMILAKLTDNGTDLSDYPEALQSFFTYVAESNLSERIVFEDYYQASTVAPSADRVQIIDPINASNNVARLYTAQNAAAIVDAALDAGDAIDAALKAPTKELTVHYWQKVFGSSFQG,not soluble
12,GPGSMLRGCAAACGQCRESASAVYGQALWLLLRPWTRSPSLPSSTHARLGLRRALGTVTSSLSSSSSCATVHHPTRWVSRKSIEEQLPSNIKVDPNASATAGRENEGLGRDAFSSGINGIYGNRAESAMRGMLGPQGQADARESRAVPILGRASVQGTKYTLDRSTVFEHWRFHCSEPVGWHLSKLGSTTCKMVNDVNEAVESLQLQIIKGCNVFEIDGAASEVHQSIARGIYEALQAFELDRSGFVMVARCGLIKQPRFQDEITRVEASNTAAVRNRIIPIFERYKASSLPSTSLKSGFRISELDDSQLARLNLRRVDRTTAAGLSPDWLDAFFTNVAYNTRLECIDVLLLEGMHTLFDGRPDEHVDDDILQLFVYLERQVKQGVLQYYGVCSPHLAPPVPRNYPEMPPDALVPDKYRTPPKEPATINLYRLMALAERAGGADHHFRFVQYPFNLTQHQAISSPLPYDANHTLATLCKALGLTALGYSPLEAPNLMQLPERYHNFPMEADLKALRMNFFTVCERSVLKEMEIKDTIDKGPDTLPPLEHLFVASVYLAAQRQFTNLFFFTDWANYYMTPRFRRAMTRFKEASSADLKEWAKQYEQLISDLLRMRQRMFQHKHGKQAGLVNMAIDYVSPTLARCPMLNQKAINFATYGCNVLLCGFHVSRYFHEATELNPAKDGNLPIPEEELLALCSAETVSYANVSPPHPYMLEPLMGEGKISKQPSKGAAYLVRIDPQNPKFPDIPEELQTGDSDGEAPVSADGATAALHKDEAPEKAVKE,not soluble
13,MSLDEDAQISAVQDGFINFYADDAVTPYVALAARGPWVITLKGAVLYDAGGYGMLGFGHTPEAVLDAMARPQVMANVMTPSLAQRKLDRALRAEIGHTRGGCPFARFMCLNSGSEAVGLAARIVDTNAKLHTDPGARHAGATIKRLVVKGSFHGRTDRPGLYSDSSRKTYSKYLASYRDEDSVIAIAPYDIAALQRAFDEAARNHWFIEAVFLEPVMGEGDPGRALPAEFYAAARTLTRNHGSLLLVDSIQAGLRAHGVLSVVDYPGFEQLDPPDLETYSKALNAAQYPLSVLAVTEQAAQVYRKGTYGNTMTTNPRALDVACATLALFTPQIRDNIRLRGAQALRKLEALQAELGGLITKVQGTGLLFSCELAPQYKCYGAGSTEEWLRHHGVNVIHGGENSLRFTPHFGMDEAELDLLVGLIAKALKEGPRQAQAEAEGHHHHHH,not soluble
14,MSLALIVHKYGGTSVGSPERIKNVAKRVAKARAEGHDIVVVVSAMSGETNRLVALAHEMQEHPDPRELDVVLATGEQVTIGLLAMALKDIGVDAKSYTGWQVALKTDTAHTKARIESIDDEKMRADLTAGKVVIVAGFQGISSEGDISTLGRGGSDTSAVALAAALKADECQIYTDVDGVYTTDPRVVPEARRMDTVTFEEMIELASLGSKVLQIRSVEFAGKYKVRLRVLSSLQDGGNGTLITFEEDDNMERAAVTGIAFDKNQARINVRGVPDKPGVAYQILGAVADANIEVDMIIQNVGSEGTTDFSFTVPRGDYKQTLEILSERQDSIGAASIDGDDTVCKVSAVGLGMRSHVGVAAKIFRTLAEEGINIQMISTSEIKVSVLIDEKYMELATRVLHKAFNLGEGHHHHHH,soluble
15,MSGDENPASKPTPVQDVQGDGRWMSLHHRFVADSKDKEPEVVFIGDSLVQLMHQCEIWRELFSPLHALNFGIGGDSTQHVLWRLENGELEHIRPKIVVVWVGTNNHGHTAEQVTGGIKAIVQLVNERQPQARVVVLGLLPRGQHPNPLREKNRRVNELVRAALAGHPRAHFLDADPGFVHSDGTISHHDMYDYLHLSRLGYTPVCRALHSLLLRLLTQDQGQGGAPLPEPSP,soluble
16,ELHAELVKRQHLETFLKTQIESELVDVYFQPIIETRTGNVVKFEALARFYHENSEYSTQEMISIIEDLELIAALDDVVCQTALKQWSHLQKIYGENIGLSINRSLNTKLDSLQVLQRSLDLIKASDVNPKLVTIELTETAYFEQDEEHAFALEQIRQEGIQIAIDDFGTGYSSFSYLEEGQFDVLKIDRKFVKNIHEGSTSYNIVKTITDLAHKLNVEVVAEGVESQRELEVLAGIGVDYMQGFLFSQA,not soluble
17,MPIHHAIVHLIEKKPDGTPAVLHARDAELGDSQAIENLLADLNESYNAKNKAWGFFQGESGAYPFSGWLGEYLEGDRDFVGFSREAVEHLQKLMEESNLSTGGHILFAHYQQGMTDYLAIALLHHSEGVAVNESLEVTPSRHLDLGQLHLAARINISEWRNNKQSKQYISFIKGKGGKKVSDYFRDFIGCQEGVDSPSETRTLLKAFSDFVESEDMAEEQAREKTETLVDYATSQARIGEPMTLDALSELMDDQQPRAFYDYIRNKDYGLSPEIPADKRTLNQFRRFTGRAEGLSISFEAHLLGSKVEYDEERDMLIIRQLPTQLKDQLKRRKDLEHHHHHH,not soluble
